Positions count from the first letter of the chain named. In names and notes the source's numbering stands.
B1: wild type human cystatin C (other)
chain: SSPGKPPRLVGGPMDASVEEEGVRRALDFAVGEYNKASNDMYHSRALQVVRARKQIVAGVNYFLDVELGRTTCTKTQPNLDNCPFHDQPHLKRKAFCSFQIYAVPWQGTMTLSKSTCQDA
B2: urinary cystatin C (Calbiochem Biosciences) (other)
chain: B1 chain
B3: variant human cystatin C (L68Q, HCHWA-I variant) (other)
chain: B1 chain with L68Q

Molecular target: Aβ1-42 synthetic peptide (UniProt P05067 672-713)
Sequence (P05067 672-713): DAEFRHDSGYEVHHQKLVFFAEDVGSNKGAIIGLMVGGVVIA
Experiment: ELISA

Row | Kd [nM] | Binder
1 | 10.6 | B1
2 | 6.6 | B2
3 | 5.9 | B3

Molecular target: Aβ1-40 synthetic peptide (UniProt P05067 672-711)
Sequence (P05067 672-711): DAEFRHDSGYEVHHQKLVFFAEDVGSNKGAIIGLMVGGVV
Experiment: ELISA

Row | Kd [nM] | Binder
4 | 16.4 | B1
5 | 9 | B2
6 | 9.2 | B3

Source: patent US7790673 (dated 2010)
